Laboratory results taken from PMC7144582.

What was measured:
[1] = molecular target: CHIKV nsP3 hypervariable domain (HVD), aa 325-523, with C-terminal Twin-Strep-tag (chikungunya virus (CHIKV) strain 181-25); experiment: NMR titration
[2] = molecular target: nsP3 Site 1 (Chikungunya virus), Q8JUX6; experiment: NMR

Molecule: CD2AP SH3-A domain (domain or fragment)
- apparent KD, Site 2 [1]: 137 µM

Molecule: CD2AP SH3-C domain (domain or fragment)
- apparent KD, Site 2 [1]: 154 µM

Molecule: CD2AP SH3-B domain (domain or fragment)
- KD, Site 1 [1]: 4.5 µM
- apparent KD, Site 2 [1]: 75.7 µM

B1: CD2AP SH3-B, Q9Y5K6 (protein)
chain: TKKRQCKVLFEYIPQNEDELELKVGDIIDINEEVEEGWWSGTLNNKLGLFPSNFVKELEV
- Kd [2]: 4.5 µM

B2: CD2AP SH3-C, Q9Y5K6 (protein)
chain: KAKEYCRTLFAYEGTNEDELTFKEGEIIHLISKETGEAGWWRGELNGKEGVFPDNFAVQINE
- Kd [2]: 51.7 µM
